Assay [1] concerns the target T1, recombinant human FcγRI (FcγR-SmBiT, Lumit assay) (human, UniProt P12314 16-292).
T1 construct: Kit reagent (Promega); also called FcγRI (CD64); not shown: SmBiT label of the kit
Briefly: Lumit FcγRI Binding Immunoassay (Promega), competition with Tracer-LgBiT for FcγRI-SmBiT, falling luminescence means binding, n=1.

The target of assay [2] is T2, human NaPi2b on NaPi2b-positive cell lines OVCAR-3 and HCC-78 (human, UniProt O95436 1-690).
T2 construct: Endogenous protein
T2 sequence: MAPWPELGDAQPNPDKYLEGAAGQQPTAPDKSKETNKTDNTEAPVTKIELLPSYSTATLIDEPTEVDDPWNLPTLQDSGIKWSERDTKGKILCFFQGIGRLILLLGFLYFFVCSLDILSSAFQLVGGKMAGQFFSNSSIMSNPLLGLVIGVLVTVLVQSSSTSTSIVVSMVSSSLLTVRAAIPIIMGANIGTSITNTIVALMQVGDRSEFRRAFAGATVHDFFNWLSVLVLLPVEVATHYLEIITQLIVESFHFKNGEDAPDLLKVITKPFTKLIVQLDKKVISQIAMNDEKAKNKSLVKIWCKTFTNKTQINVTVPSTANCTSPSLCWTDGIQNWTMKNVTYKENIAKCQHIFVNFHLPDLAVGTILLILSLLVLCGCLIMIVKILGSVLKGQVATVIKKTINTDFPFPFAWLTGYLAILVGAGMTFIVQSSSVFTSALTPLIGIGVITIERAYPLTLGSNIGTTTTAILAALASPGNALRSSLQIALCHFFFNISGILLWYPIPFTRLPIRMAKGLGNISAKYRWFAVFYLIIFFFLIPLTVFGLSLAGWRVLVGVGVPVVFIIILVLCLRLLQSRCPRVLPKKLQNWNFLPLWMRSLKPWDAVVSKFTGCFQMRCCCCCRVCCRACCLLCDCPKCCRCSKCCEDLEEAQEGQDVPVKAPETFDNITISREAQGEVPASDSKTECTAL
In words: flow cytometry on OVCAR-3 cells, one-site fit.

In assay [3] the target is T3, human Napi2b-mCherry on HEK293 cells (human, UniProt O95436 1-690).
T3 construct: also called Napi2b (SLC34A2); HEK293 cells overexpressing Napi2b
T3 sequence: T2 sequence
In words: flow cytometry on HEK293 cells stably expressing human full-length NaPi2b-mCherry, Alexa-dye anti-human IgG H+L secondary antibody, MFI ratio, one-site specific binding fit; the Kd table prints no unit, the concentration axis is in nM; second experiment on human cells, run beside the rat cells of FIG. 3D.

The target in assay [4] is T3, human Napi2b-mCherry on HEK293 cells. In words: flow cytometry on HEK293 cells expressing human Napi2b-mCherry (panel Napi2b-HEK293), Alexa-dye anti-human IgG H+L secondary antibody, MFI ratio to the non-specific binding control. On the technique in general: In flow cytometry, cells or beads pass a laser one at a time.
Assay [5] addresses T4, purified recombinant human Napi2b antigen consisting of Napi2b-extracellular-loop2 expressed as … (human, UniProt O95436 234-362, limits assumed).
T4 construct: Expressed in Expi-HEK293 cells; also called immobilized human NaPi2B; not shown: Fc part; 6-His tag
T4 sequence: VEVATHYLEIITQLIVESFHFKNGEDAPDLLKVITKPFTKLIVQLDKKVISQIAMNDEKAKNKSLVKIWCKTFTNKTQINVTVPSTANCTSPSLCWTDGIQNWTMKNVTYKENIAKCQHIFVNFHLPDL
In words: ELISA, coated Napi2b-extracellular-loop2-Fc-6-His, apparent KD from one-site fit. In general terms: An ELISA detects its analyte on a solid surface through an enzyme-linked reagent.

For assay [6], the target named is T2, human NaPi2b on NaPi2b-positive cell …. Briefly: flow cytometry on HCC-78 cells, one-site fit.
The target is the same in assay [7]. Briefly: flow cytometry on NaPi2b-positive HCC-78 cells, Alexa-dye-labeled anti-human IgG H+L secondary antibody, MFI ratio normalized to the non-specific binding control.
The target of assay [8] is T4, purified recombinant human Napi2b …. In words: ELISA on the isolated immobilized protein; table column Binding KD (nmol/L), ELISA.
For assay [9], the target named is T2, human NaPi2b on NaPi2b-positive cell …. Briefly: flow cytometry on OVCAR-3 cells; table column Binding KD (nmol/L), FACS (OVCAR-3).
For assay [10], the target named is T5, FcγRIIIa (CD16) (F158) (Homo sapiens, UniProt P08637).
T5 construct: m21 joins both polymorphic variants; also called F158 variant of m21
T5 sequence (P08637 17-208 limits assumed): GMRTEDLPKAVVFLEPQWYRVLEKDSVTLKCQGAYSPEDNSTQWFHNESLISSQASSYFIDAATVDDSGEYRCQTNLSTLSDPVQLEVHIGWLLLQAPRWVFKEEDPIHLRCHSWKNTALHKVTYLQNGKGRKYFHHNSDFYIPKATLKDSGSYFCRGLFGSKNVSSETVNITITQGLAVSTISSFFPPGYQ
In words: Lumit FcγRIIIa (F158) Binding Immunoassay (Promega), right panel FcγRIIIa (CD16) (F158), competition with Tracer-LgBiT for FcγR-SmBiT, falling luminescence means binding, n=1.

T1 sequence (P12314 16-292): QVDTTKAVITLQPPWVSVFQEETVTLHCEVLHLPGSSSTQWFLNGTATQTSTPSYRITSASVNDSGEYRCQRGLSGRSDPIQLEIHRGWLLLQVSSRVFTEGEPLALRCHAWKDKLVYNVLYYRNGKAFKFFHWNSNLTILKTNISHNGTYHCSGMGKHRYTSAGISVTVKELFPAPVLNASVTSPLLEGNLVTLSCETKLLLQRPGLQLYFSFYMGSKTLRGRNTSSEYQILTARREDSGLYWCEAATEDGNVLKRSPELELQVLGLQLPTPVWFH

B1: AV25 mAb, LALA-silenced (AV25 HC-LALA) (antibody, human IgG1, kappa, L234A L235A)
heavy: not shown
light: DIQMTQSPSSLSASVGDRVTITCSASQDIGNFLNWYQQKPGKTVKVLIYYASSLYSGVPSRFSGSGSGTDYTLTISSLQPEDFATYYCQQYSKLPLTFGQGTKLELKRTVAAPSVFIFPPSDEQLKSGTASVVCLLNNFYPREAKVQWKVDNALQSGNSQESVTEQDSKDSTYSLSSTLTLSKADYEKHKVYACEVTHQGLSSPVTKSFNRGEC
notes: also called unmodified AV25 mAb
Take B1: the binding result in assay [1] and in assay [10] was “binds” each time. Further, the Kd is 0.44 µg/mL in assay [2]; 0.609 nM in assay [3]; 0.0106 µg/mL in assay [5]; 0.42 µg/mL in [6]; 0.071 nM in assay [8]; 2.7 nM in assay [9]. Besides, the EC50 (read off the curve) (as a rule, the midpoint of the concentration-response curve) is roughly 0.7 nM in [4] and roughly 0.4 µg/mL in assay [7].
